Data reported in US20260356943 (published 2026).
Where a chain is given by its changes, count along the chain named. Values belong to the binder of their own block, whether it stands above or below them.

How the values were obtained:
human ROR1 [1] = target: T1, human ROR1 (human, UniProt Q01973); assay: ELISA, stored 4C
human ROR1 [2] = target: T1, human ROR1; assay: ELISA, stored 37C 2 weeks
human B7-H3 [3] = target: T2, human B7-H3 (human, UniProt Q5ZPR3); assay: ELISA, stored 4C
T2 chain: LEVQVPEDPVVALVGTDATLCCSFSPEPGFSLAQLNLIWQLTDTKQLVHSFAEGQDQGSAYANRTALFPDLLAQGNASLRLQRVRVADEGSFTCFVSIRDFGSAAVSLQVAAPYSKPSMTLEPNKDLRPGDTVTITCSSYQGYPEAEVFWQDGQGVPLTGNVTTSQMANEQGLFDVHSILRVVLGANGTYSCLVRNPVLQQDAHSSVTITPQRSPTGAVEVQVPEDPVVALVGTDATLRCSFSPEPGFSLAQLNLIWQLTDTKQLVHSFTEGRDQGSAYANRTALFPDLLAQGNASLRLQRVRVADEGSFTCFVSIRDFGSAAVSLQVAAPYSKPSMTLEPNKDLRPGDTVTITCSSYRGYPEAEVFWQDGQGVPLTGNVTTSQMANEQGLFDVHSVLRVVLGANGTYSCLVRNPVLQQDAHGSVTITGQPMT

human B7-H3 [4] = target: T2, human B7-H3; assay: ELISA, stored 40C 2 weeks
human ROR1 [5] = target: T1, human ROR1; assay: ELISA, stored 4C; remark: listed apart in the source
human ROR1 [6] = target: T1, human ROR1; assay: ELISA, stored 40C 2 weeks
human ROR1 [7] = target: T1, human ROR1; assay: ELISA, monkey serum 3 days
human ROR1 [8] = target: T1, human ROR1; assay: ELISA, monkey serum 0 day
human ROR1 [9] = target: T1, human ROR1; assay: ELISA, monkey serum 14 days
human ROR1 [10] = target: T1, human ROR1; assay: ELISA, human serum 0 day
human ROR1 [11] = target: T1, human ROR1; assay: SPR, 25C, bivalent analyte
human ROR1 [12] = target: T1, human ROR1; assay: ELISA, human serum 14 days
human ROR1 [13] = target: T1, human ROR1; assay: ELISA, dual-antigen capture ROR1/4-1BB
human ROR1 [14] = target: T1, human ROR1; assay: ELISA, monkey serum 7 days
human ROR1 [15] = target: T1, human ROR1; assay: ELISA, human serum 3 days
human ROR1 [16] = target: T1, human ROR1; assay: ELISA, human serum 7 days
human ROR1 [17] = target: T1, human ROR1; assay: ELISA, human serum 2 days
human ROR1 [18] = target: T1, human ROR1; assay: ELISA, monkey serum 2 days
human 4-1BB = human 4-1BB (human, UniProt Q07011); assay: SPR, 25C
Chain of human 4-1BB (Q07011 24-186): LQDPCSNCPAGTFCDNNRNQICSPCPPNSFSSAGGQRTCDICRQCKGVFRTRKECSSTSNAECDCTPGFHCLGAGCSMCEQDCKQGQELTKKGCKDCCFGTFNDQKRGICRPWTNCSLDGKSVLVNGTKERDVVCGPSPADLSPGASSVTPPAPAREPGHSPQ

T1 sequence (Q01973 30-403): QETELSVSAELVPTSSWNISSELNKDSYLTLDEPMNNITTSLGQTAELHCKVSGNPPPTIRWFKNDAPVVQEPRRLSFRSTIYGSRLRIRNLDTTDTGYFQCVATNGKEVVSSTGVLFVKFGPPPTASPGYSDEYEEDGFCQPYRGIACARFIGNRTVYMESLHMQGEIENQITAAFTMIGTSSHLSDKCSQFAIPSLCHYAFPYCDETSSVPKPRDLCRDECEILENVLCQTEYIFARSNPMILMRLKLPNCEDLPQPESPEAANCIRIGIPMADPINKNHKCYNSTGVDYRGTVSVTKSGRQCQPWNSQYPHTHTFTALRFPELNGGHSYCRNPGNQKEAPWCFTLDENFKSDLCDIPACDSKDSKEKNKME

EC50 (human B7-H3 [3]): 0.232 nM
EC50 (human B7-H3 [4]): 0.19 nM
B2: BA6M11xB5 B7-H3 arm (antibody, V domains shown)
VH: EVQLLESGGGLVQPGGSLRLSCAASGFTFSDYAMSWVRQAPGKCLEWVSSISSGSGSIYYADSVKGRFTISRDNSKNTLYLQMNSLRAEDTAVYYCAKNLIPLDYWGQGTLVTVSS
VL: QSVLTQPPSASGTPGQRVTISCSGSSSNIGSNAVSWYQQLPGTAPKLLIYYNSHRPSGVPDRFSGSKSGTSASLAISGLRSEDEADYYCGSWDASLNAYVFGCGTKLTVL

EC50 (human B7-H3 [3]): 0.173 nM
EC50 (human B7-H3 [4]): 0.186 nM
B3: BA6xB5 B7-H3 arm (antibody, V domains shown)
VH: B2 VH
VL: B2 VL

EC50 (human ROR1 [5]): 0.152 nM
EC50 (human ROR1 [6]): 0.134 nM
B5: BA6M11xB5 ROR1 arm (antibody, V domains shown)
VH: EVQLLESGGGLVQPGGSLRLSCAASGFTFSNYDMSWVRQAPGKGLEWVSAIYHSGSSKYYADSVKGRFTISRDNSKNTLYLQMNSLRAEDTAVYYCARGGSGAWDTGFDYWGQGTLVTVSS
VL: B2 VL with A33D, N52E, S53N, H54N, S91A, A94D, N97S, A98G, C103G

EC50 (human ROR1 [5]): 0.141 nM
EC50 (human ROR1 [6]): 0.18 nM
B7: BA6xB5 ROR1 arm (antibody, V domains shown)
VH: B5 VH with S101N
VL: B2 VL with A33D, N52D, S53N, H54N, S91A, A94D, N97S, A98G, C103G

EC50 (human ROR1 [8]): 0.24 nM
EC50 (human ROR1 [9]): 0.419 nM
EC50 (human ROR1 [17]): 0.365 nM
EC50 (human ROR1 [10]): 0.228 nM
EC50 (human ROR1 [12]): 0.457 nM
EC50 (human ROR1 [13]): 0.386 nM
EC50 (human ROR1 [18]): 0.36 nM
EC50 (human ROR1 [14]): 0.427 nM
EC50 (human ROR1 [16]): 0.42 nM
B8: BA6x1A10M12 ROR1 arm (antibody, V domains shown)
VH: B5 VH with S101N
VL: B2 VL with A33D, N52D, S53N, H54N, S91A, A94D, N97S, A98G, C103G

Second part, the binder before the results:

B1: BA6M11 IgG (antibody, V domains shown)
VH: B5 VH
VL: B2 VL with A33D, N52E, S53N, H54N, S91A, A94D, N97S, A98G, C103G
EC50 (human ROR1 [1]): 0.166 nM
EC50 (human ROR1 [2]): 0.129 nM

B4: BA6 IgG (WT) (antibody, V domains shown)
VH: B5 VH with S101N
VL: B2 VL with A33D, N52D, S53N, H54N, S91A, A94D, N97S, A98G, C103G
EC50 (human ROR1 [1]): 0.217 nM
EC50 (human ROR1 [2]): 0.261 nM

B6: BA6M11(NA)x1A10M12 ROR1 arm (antibody, V domains shown)
VH: B5 VH
VL: B2 VL with A33D, N52E, S53N, H54N, S91A, A94D, N97S, A98G, C103G
EC50 (human ROR1 [7]): 0.238 nM
EC50 (human ROR1 [8]): 0.208 nM
EC50 (human ROR1 [9]): 0.273 nM
EC50 (human ROR1 [10]): 0.211 nM
Kd (human ROR1 [11]): 6.65 nM
EC50 (human ROR1 [12]): 0.233 nM
EC50 (human ROR1 [13]): 0.268 nM
EC50 (human ROR1 [14]): 0.257 nM
EC50 (human ROR1 [15]): 0.22 nM
EC50 (human ROR1 [16]): 0.236 nM

B9: BA6M11(WT)x1A10M12 ROR1 arm (antibody, V domains shown)
VH: B5 VH
VL: B2 VL with A33D, N52E, S53N, H54N, S91A, A94D, N97S, A98G, C103G
Kd (human ROR1 [11]): 6.05 nM

B10: BA6M11(WT)x1A10M12 4-1BB arm (antibody, V domains shown)
VH: EVQLLESGGGLVQPGGSLRLSCAASGFTFSSYDMSWVRQAPGKCLEWVSWISYSGGSIYYADSVKGRFTISRDNSKNTLYLQMNSLRAEDTAVYYCARDAQRNSMREFDYWGQGTLVTVSS
VL: B2 VL with S31N, A33Y, S35T, Y51A, N52D, G90A, S91T, A94Y, N97S, A98G
Kd (human 4-1BB): 4.53 nM

B11: BA6M11(NA)x1A10M12 4-1BB arm (antibody, V domains shown)
VH: B10 VH
VL: B2 VL with S31N, A33Y, S35T, Y51A, N52D, G90A, S91T, A94Y, N97S, A98G
Kd (human 4-1BB): 4.5 nM
